Article PMC4748815 (RNA, 2016)
Where two headings read alike, the source gives them in different places.

B1: His6-tagged mouse 4EHP (natural protein, UniProt Q8BMB3 1-245, looked up)
chain: MNNKFDALKDDDSGDHDQNEENSTQKDGEKEKTDRDKSQSSGKRKAVVPGPAEHPLQYNYTFWYSRRTPGRPTSSQSYEQNIKQIGTFASVEQFWKFYSHMVRPGDLTGHSDFHLFKEGIKPMWEDDANKNGGKWIIRLRKGLASRCWENLILAMLGEQFMVGEEICGAVVSVRFQEDIISIWNKTASDQATTARIRDTLRRVLNLPPNTIMEYKTHTDSIKMPGRLGPQRLLFQNLWKPRLNVP
B2: GST-tagged mouse TTP (natural protein, UniProt P22893 1-319, looked up)
chain: MDLSAIYESLQSMSHDLSSDHGGTESLGGLWNINSDSIPSGVTSRLTGRSTSLVEGRSCGWVPPPPGFAPLAPRPGPELSPSPTSPTATPTTSSRYKTELCRTYSESGRCRYGAKCQFAHGLGELRQANRHPKYKTELCHKFYLQGRCPYGSRCHFIHNPTEDLALPGQPHVLRQSISFSGLPSGRRSSPPPPGFSGPSLSSCSFSPSSSPPPPGDLPLSPSAFSAAPGTPVTRRDPNQACCPSCRRSTTPSTIWGPLGGLARSPSAHSLGSDPDDYASSGSSLGGSDSPVFEAGVFGPPQTPAPPRRLPIFNRISVSE

Experiments:
Assay in all cases: pull-down
His6-tagged mouse GYF2 [1] = biological target: T1, His6-tagged mouse GYF2 (mouse, UniProt Q6Y7W8 1-1291)
T1 sequence (looked up): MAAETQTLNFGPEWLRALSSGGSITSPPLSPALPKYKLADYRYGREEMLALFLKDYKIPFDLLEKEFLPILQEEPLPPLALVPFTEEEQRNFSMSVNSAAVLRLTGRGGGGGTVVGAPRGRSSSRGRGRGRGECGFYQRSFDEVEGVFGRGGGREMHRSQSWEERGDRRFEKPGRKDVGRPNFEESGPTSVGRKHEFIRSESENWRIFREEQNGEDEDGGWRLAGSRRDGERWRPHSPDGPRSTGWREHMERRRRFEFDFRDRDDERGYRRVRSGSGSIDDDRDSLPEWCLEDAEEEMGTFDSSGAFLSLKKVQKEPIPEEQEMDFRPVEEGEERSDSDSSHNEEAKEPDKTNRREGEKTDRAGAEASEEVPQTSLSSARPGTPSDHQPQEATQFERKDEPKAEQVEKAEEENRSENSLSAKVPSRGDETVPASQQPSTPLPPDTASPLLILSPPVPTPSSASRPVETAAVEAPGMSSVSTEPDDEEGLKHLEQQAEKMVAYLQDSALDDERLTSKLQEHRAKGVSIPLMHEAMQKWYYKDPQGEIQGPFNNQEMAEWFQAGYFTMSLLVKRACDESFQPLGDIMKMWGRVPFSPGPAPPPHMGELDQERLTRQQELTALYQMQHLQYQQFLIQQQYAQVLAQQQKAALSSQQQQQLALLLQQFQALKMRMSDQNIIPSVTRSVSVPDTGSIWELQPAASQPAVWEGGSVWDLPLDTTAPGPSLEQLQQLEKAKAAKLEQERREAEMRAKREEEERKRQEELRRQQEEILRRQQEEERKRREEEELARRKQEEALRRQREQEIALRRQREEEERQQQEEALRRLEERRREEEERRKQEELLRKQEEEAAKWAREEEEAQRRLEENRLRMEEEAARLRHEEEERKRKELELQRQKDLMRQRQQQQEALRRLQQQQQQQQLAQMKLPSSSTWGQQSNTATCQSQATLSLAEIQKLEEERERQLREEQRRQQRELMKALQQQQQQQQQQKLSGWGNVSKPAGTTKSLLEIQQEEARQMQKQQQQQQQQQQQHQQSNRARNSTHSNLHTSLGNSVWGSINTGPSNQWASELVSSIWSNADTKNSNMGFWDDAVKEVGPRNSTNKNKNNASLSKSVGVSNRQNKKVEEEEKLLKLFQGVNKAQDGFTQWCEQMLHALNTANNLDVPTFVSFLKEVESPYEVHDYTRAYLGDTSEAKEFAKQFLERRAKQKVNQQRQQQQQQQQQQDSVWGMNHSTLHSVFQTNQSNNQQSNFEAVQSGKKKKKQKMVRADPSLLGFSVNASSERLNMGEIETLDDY

GST-tagged mouse TTP = biological target: B2
His6-tagged mouse GYF2 [2] = biological target: T1, His6-tagged mouse GYF2; remark: listed apart in the source

| binding result (His6-tagged mouse GYF2 [1]) | binding result (GST-tagged mouse TTP) | binding result (His6-tagged mouse GYF2 [2]) | Binder |
| --- | --- | --- | --- |
| binds | binds |  | B1 |
|  |  | binds | B2 |
